Key:
PKA RIIα (Homo sapiens) = PKA RIIα (Homo sapiens) (UniProt P13861); experiment: SPR; details: cited from earlier work
[1] = target: AKAP18β 30-mer peptide, Ala67 to aspartate (human); experiment: peptide or protein array
[2] = target: AKAP18β 30-mer peptide, Ala63 to aspartate (human); experiment: peptide or protein array
[3] = target: AKAP18β 30-mer peptide, Val60 to aspartate (human); experiment: peptide or protein array
[4] = target: AKAP18β 30-mer peptide, Val64 to aspartate (human); experiment: peptide or protein array

Chain of RIIα subunits, recombinant, radioactively labelled (32P) (P13861 whole entry): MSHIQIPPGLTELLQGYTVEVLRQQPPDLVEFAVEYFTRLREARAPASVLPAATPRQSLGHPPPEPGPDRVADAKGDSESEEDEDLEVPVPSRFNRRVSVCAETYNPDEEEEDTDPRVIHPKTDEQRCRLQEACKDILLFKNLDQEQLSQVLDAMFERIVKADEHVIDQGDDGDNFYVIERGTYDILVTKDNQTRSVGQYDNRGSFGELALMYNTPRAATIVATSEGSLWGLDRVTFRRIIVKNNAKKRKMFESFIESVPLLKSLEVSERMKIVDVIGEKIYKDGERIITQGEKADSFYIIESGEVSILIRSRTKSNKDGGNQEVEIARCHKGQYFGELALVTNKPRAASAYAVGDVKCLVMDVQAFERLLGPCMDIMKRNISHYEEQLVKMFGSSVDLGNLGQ
Chain of AKAP18δ PKA-binding domain peptide PKA-binding domain (25 aa) (Q9P0M2 295-319, stated change not applied): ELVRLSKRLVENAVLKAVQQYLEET
Chain of PKA RIIα (Homo sapiens) (P13861 2-404): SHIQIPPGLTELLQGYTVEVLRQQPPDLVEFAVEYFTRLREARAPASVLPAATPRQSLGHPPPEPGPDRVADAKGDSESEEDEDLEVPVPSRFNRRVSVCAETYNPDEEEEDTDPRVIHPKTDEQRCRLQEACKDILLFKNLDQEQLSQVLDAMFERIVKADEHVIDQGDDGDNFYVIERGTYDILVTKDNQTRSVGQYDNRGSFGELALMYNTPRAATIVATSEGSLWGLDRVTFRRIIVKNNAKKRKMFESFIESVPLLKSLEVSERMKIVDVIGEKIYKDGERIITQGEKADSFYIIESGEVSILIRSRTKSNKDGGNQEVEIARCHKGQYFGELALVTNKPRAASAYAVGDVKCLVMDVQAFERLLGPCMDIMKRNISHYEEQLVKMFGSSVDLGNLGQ

reduction of binding (% against the wild-type peptide) [1] | reduction of binding (% against the wild-type peptide) [2] | reduction of binding (% against the wild-type peptide) [3] | reduction of binding (% against the wild-type peptide) [4] | Substance | Kd (PKA RIIα (Homo sapiens))
– | – | – | – | AKAP18δ PKA-binding domain peptide PKA-binding domain (25 aa) (from UniProt Q9P0M2) | 0.4 nM
> 60% | > 60% | > 60% | > 60% | RIIα subunits, recombinant, radioactively labelled (32P) (from UniProt P13861 1-404) (natural protein) | –
